Results taken from patent US20030219717A1, “Fluorophore complementation products” (priority 2002, published 2003).

Columns and labels:
[1] = molecular target: FKBP-CtermEYFP173 (human; Aequorea victoria) (UniProt P62942); experiment: cell-based or functional assay
[2] = molecular target: FKBP / FRB (FKBP binding part of FRAP) interaction (Homo sapiens, UniProt P42345+P62942); experiment: Rapamycin-induced E[F64L]YFP fragment complementation (EYFP fluorescence) in stably transfected CHO-hIR cells; format: cell-based; details: CHO-hIR [PS1767+PS1768], 1 μM rapamycin
Protocol: Probes were co-transfected in pairs into CHO-hIR cells (supra), PS1769 with PS1771 and PS1767 with PS1768, using the transfection agent FuGENE™ 6 (Boehringer Mannheim Corp, USA) according to the method recommended by the suppliers. Cells were cultured in growth medium (HAM's F12 nutrient mix with Glutamax-1, 10% foetal bovine serum (FBS), 100 μg penicillin-streptomycin mixture ml^−1 (GibcoBRL, supplied by Life Technologies, Denmark)). Transfected cells were cultured in this medium, with the addition of two selection agents appropriate to the plasmids being used, being 1 mg/ml zeocin plus 0.5 mg/mlG418 sulphate. […]
After 10 to 12 days culture in the continuous presence of the selection agents, the resulting cell lines were judged to be stably transfected. For fluorescence microscopy, aliquots of cells were transferred to Lab-Tek chambered cover glasses (Nalge Nunc International, Naperville USA) and allowed to adhere for at least 24 hours to reach about 80% confluence. Images were routinely collected using a Nikon Diaphot 300 inverted fluorescence microscope (Nikon Corp., Tokyo, Japan) using ×20 (dry) and/or ×40 (oil immersion) objectives and coupled to a Orca ER charged coupled device (CCD) camera (Hammamatsu Photonics K. K., Hammamatsu City, Japan). […]
This is easily accomplished through fluorescence activated cell sorting (FACS) methods. […]

[3] = molecular target: FRB-CtermEYFP173 (human; Aequorea victoria) (UniProt P42345); experiment: cell-based or functional assay

Chain of FKBP-CtermEYFP173 (human; Aequorea victoria) (P62942 other isoform, or with tags, fused parts or gaps, form in doubt): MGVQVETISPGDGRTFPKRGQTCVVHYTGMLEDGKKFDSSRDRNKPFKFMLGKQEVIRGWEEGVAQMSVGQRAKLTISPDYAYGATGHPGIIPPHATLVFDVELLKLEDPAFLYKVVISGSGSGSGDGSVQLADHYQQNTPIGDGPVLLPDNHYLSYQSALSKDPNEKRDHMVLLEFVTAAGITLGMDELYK

“NtermE[F64L]YFP172-FRB (from UniProt P42345 2025-2114)” gave an EC50 of FK506 against 100 nM rapamycin, EYFP fluorescence/cell, 'mid to low-green' FACS group [1] of 1200 nM, an EC50 of rapamycin for EYFP fluorescence, 'black' FACS group, 7 and 30 hours [1] of 100 nM and an EC50 of rapamycin for EYFP fluorescence, 'medium to low-green' FACS group, 7 and 30 hours [1] of 250 nM. It also gave a half-time for development of fluorescence after 3 uM rapamycin [1] of 5 h, an increase in EYFP fluorescence over the unstimulated value, 'black' FACS group [1] of over 20 fold and an increase in EYFP fluorescence over the unstimulated value, 'medium to low-green' FACS group [1] of over 20 fold. The proportion of cells with appreciable EYFP fluorescence before rapamycin (t=0) [1] was under 5%, the proportion of cells with significantly greater EYFP fluorescence 4 hours after 1 uM rapamycin [1] was 40% and the proportion of responding cells 16 hours after 1 uM rapamycin [1] was 70%.
In the case of CO[C@H]1C[C@@H]2CC[C@@H](C)[C@@](O)(O2)C(=O)C(=O)N2CCCC[C@H]2C(=O)O[C@H]([C@H](C)C[C@@H]2CC[C@@H](O)[C@H](OC)C2)CC(=O)[C@H](C)/C=C(\C)[C@@H](O)[C@@H](OC)C(=O)[C@H](C)C[C@H](C)/C=C/C=C/C=C/1C [rapamycin], the “Proportion of cells with significantly greater EYFP fluorescence” value ([2]; after 4 hours) is reported as “approximately 40%” and the “Proportion of the cell population encompassed by the EYFP fluorescence response” value ([2]; after 16 hours) is reported as “approximately 70%”.
For “NtermE[F64L]YFP172-FKBP (from UniProt P62942 1-108)”, the EC50 of FK506 against 100 nM rapamycin, EYFP fluorescence/cell, 'black' FACS group [3] was 1200 nM.
